Results from article PMC4252739 (Cell host & microbe, 2014).
Positions count from the first letter of the chain named. Names and notes keep the numbering of the source.

B1: MxB-HA K663D (natural protein)
chain: MSKAHKPWPYRRRSQFSSRKYLKKEMNSFQQQPPPFGTVPPQMMFPPNWQGAEKDAAFLAKDFNFLTLNNQPPPGNRSQPRAMGPENNLYSQYEQKVRPCIDLIDSLRALGVEQDLALPAIAVIGDQSSGKSSVLEALSGVALPRGSGIVTRCPLVLKLKKQPCEAWAGRISYRNTELELQDPGQVEKEIHKAQNVMAGNGRGISHELISLEITSPEVPDLTIIDLPGITRVAVDNQPRDIGLQIKALIKKYIQRQQTINLVVVPCNVDIATTEALSMAHEVDPEGDRTIGILTKPDLMDRGTEKSVMNVVRNLTYPLKKGYMIVKCRGQQEITNRLSLAEATKKEITFFQTHPYFRVLLEEGSATVPRLAERLTTELIMHIQKSLPLLEGQIRESHQKATEELRRCGADIPSQEADKMFFLIEKIKMFNQDIEKLVEGEEVVRENETRLYNKIREDFKNWVGILATNTQKVKNIIHEEVEKYEKQYRGKELLGFVNYKTFEIIVHQYIQQLVEPALSMLQKAMEIIQQAFINVAKKHFGEFFNLNQTVQSTIEDIKVKHTAKAENMIQLQFRMEQMVFCQDQIYSVVLKKVREEIFNPLGTPSQNMKLNSHFPSNESSVSSFTEIGIHLNAYFLETSKRLANQIPFIIQYFMLRENGDSLQDAMMQILQEKNRYSWLLQEQSETATKRRILKERIYRLTQARHALCQFSSKEIH
B2: MBP-MxB_(1-715 IK/DD) (natural protein, UniProt P20592 1-715, looked up)
chain: B1 chain with I423D
B3: MxB-HA M666D (natural protein)
chain: B1 chain with D663K, M666D
B4: MxB-HA E681A (natural protein)
chain: B1 chain with D663K, E681A
B5: MxB-HA Y651D (natural protein)
chain: B1 chain with Y651D, D663K
B6: MxB_(84YRGK) (6xHis-MxB residues 84-715 with YRGK487-490AAAA) (domain or fragment)
chain: GPENNLYSQYEQKVRPCIDLIDSLRALGVEQDLALPAIAVIGDQSSGKSSVLEALSGVALPRGSGIVTRCPLVLKLKKQPCEAWAGRISYRNTELELQDPGQVEKEIHKAQNVMAGNGRGISHELISLEITSPEVPDLTIIDLPGITRVAVDNQPRDIGLQIKALIKKYIQRQQTINLVVVPCNVDIATTEALSMAHEVDPEGDRTIGILTKPDLMDRGTEKSVMNVVRNLTYPLKKGYMIVKCRGQQEITNRLSLAEATKKEITFFQTHPYFRVLLEEGSATVPRLAERLTTELIMHIQKSLPLLEGQIRESHQKATEELRRCGADIPSQEADKMFFLIEKIKMFNQDIEKLVEGEEVVRENETRLYNKIREDFKNWVGILATNTQKVKNIIHEEVEKYEKQAAAAELLGFVNYKTFEIIVHQYIQQLVEPALSMLQKAMEIIQQAFINVAKKHFGEFFNLNQTVQSTIEDIKVKHTAKAENMIQLQFRMEQMVFCQDQIYSVVLKKVREEIFNPLGTPSQNMKLNSHFPSNESSVSSFTEIGIHLNAYFLETSKRLANQIPFIIQYFMLRENGDSLQKAMMQILQEKNRYSWLLQEQSETATKRRILKERIYRLTQARHALCQFSSKEIH
B7: MxB_(84YRGK/M574D) (domain or fragment, UniProt P20592 84-715, looked up)
chain: B6 chain with M491D
B8: MBP-MxB_(1-715 IKM/DDD) (natural protein, UniProt P20592 1-715, looked up)
chain: B1 chain with I423D, M666D
B9: MBP-MxB (full-length WT MxB tagged with maltose-binding protein) (natural protein, UniProt P20592 1-715, looked up)
chain: B1 chain with D663K

Tests used:
[1] = target: HIV-1 CA A14C/E45C cross-linked tubular assemblies (HIV-1); assay: co-sedimentation
SEC [2] = target: the molecule itself; assay: SEC
SEC [3] = target: the molecule itself; assay: SEC; remark: listed apart in the source
cryo-EM imaging = target: the molecule itself; assay: cryo-EM imaging

| Binder | binding specificity (percent of input co-pelleted, background corrected) [1] [%] | also measured |
| --- | --- | --- |
| B1 | 27 | – |
| B2 | 40 | stoichiometry N (SEC [2]): 2 |
| B3 | 26 | – |
| B4 | 9.8 | – |
| B5 | < 0.1 | – |
| B6 | – | percent co-sedimented with CA [1]: 9% |
| B7 | – | binding result (SEC [3]): binds |
| B8 | – | stoichiometry N (SEC [2]): 2 |
| B9 | – | binding result (cryo-EM imaging): binds |
